± gives the uncertainty stated by the source.

Data on 78 sequences can be found in the supplement of paper PMC7877785.

This data set can be described thus: self-splicing fitness, log relative to wild type (ln ratio); higher = more splicing; Tetrahymena group I intron in knt gene, E. coli kanamycin selection, DiMSum; sequences stand for … in CUCUCU…GGAGGGAAAAGUUAUCAGGCAUGCACCUGGUAGCUAGUCUUUAAACCAAUAGAUUGCAUCGGUUUAAAAGGCAAGACCGUCAAAUUGCGGGAAAGGGGUCAACAGCCGUUCAGUACCAAGUCUCAGGGGAAACUUUGAGAUGGCCUUGCAAAGGGUAUGGUAAUAAGCUGACGGACAUGGUCCUAACCACGCAGCCAAGUCCUAAGUCAACAGAUCUUCUGUUGAUAUGGAUGCAGUUCACAGACUAAAUGUCGGUCGGGGAAGAUGUAUUCUUCUCAUAAGAUAUAGUCGGACCUCUCCUUAAUGGGAGCUAGCGGAUGAAGUGAUGCAACACUGGAGCCGCUGGGAACUAAUUUGUAUGCGAAAGUAUAUUGAUUAGUUUUGGAGUACUCGUGGUCG
A digest of the protocol: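 DiMSum derived fitness as the error-weighted combination of fold changes across replicates, kanamycin versus no kanamycin, normalised to wild type. E. coli BL21(DE3) held the library, which randomised all eight P1ex-region intron nucleotides within the knt kanamycin-resistance gene on pET-22b(+). Six replicate transformations grew overnight at 37°C or 30°C on LB agar with or without 25 μg/mL kanamycin, also containing 100 μg/mL carbenicillin, 50 μM IPTG and 0.2% rhamnose, and pooled colonies were amplicon-sequenced on an Illumina HiSeq 2500.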

With UUUCAGCAAUAUUACGGUUA, the “self-splicing fitness (ln)” value was found to be 0.116 ± 0.071 (30 °C) and 0.454 ± 0.077 (37 °C).
Turning to UUCAAGCAAUAUUACGGGCA, the “self-splicing fitness (ln)” value was -0.666 ± 0.11 (30 °C) and 0.111 ± 0.1 (37 °C).
On to CAAGAGCAAUAUUACGAACA, for which the “self-splicing fitness (ln)” value (37 °C) was -2.49 ± 0.33.
On to CAUCAGCAAUAUUACGAUGC, for which the “self-splicing fitness (ln)” value reads like this: (30 °C) -4.35 ± 0.36; (37 °C) -2.76 ± 0.33.
Taken in the same sequence, the figures for CUUCAGCAAUAUUACGAAAA were -2.29 ± 0.2 and -3.03 ± 0.35.
Taken in the same sequence, the figures for GCAUAGCAAUAUUACGCAUA were -2.29 ± 0.15 and -1.16 ± 0.12.
Taken in the same sequence, the figures for UGGAAGCAAUAUUACGUCGG were -0.128 ± 0.11 and -0.162 ± 0.11.
With CACUAGCAAUAUUACGGCGC, the “self-splicing fitness (ln)” value by setting is: (30 °C) -2.98 ± 0.15; (37 °C) -1.11 ± 0.15.
As for CACAAGCAAUAUUACGACCA, the “self-splicing fitness (ln)” value was -1.19 ± 0.16 (30 °C) and -1.05 ± 0.16 (37 °C).
Taken in the same sequence, the figures for GCAAAGCAAUAUUACGUUUA were -2.29 ± 0.12 and -1.75 ± 0.13.
Taken in the same sequence, the figures for CGGCAGCAAUAUUACGCUGA were -3.18 ± 0.17 and -2.17 ± 0.23.
Taken in the same sequence, the figures for ACAAAGCAAUAUUACGUCGA were -1.98 ± 0.092 and -1.02 ± 0.094.
Regarding AUAAAGCAAUAUUACGCACU, the “self-splicing fitness (ln)” value was 0.366 ± 0.11 (30 °C) and 0.662 ± 0.11 (37 °C).
Taken in the same sequence, the figures for CGAGAGCAAUAUUACGUUGG were -3.78 ± 0.3 and -2.48 ± 0.22.
Taken in the same sequence, the figures for GCGUAGCAAUAUUACGCCAG were -3.15 ± 0.41 and -2.32 ± 0.37.
Taken in the same sequence, the figures for AUUAAGCAAUAUUACGGAUC were -1.85 ± 0.16 and -0.479 ± 0.18.
As to UACUAGCAAUAUUACGAUCG, the “self-splicing fitness (ln)” value turned out to be 0.0068 ± 0.092 (30 °C) and 0.387 ± 0.12 (37 °C).
Take CGGAAGCAAUAUUACGUCGU: the “self-splicing fitness (ln)” value (37 °C) was -2.21 ± 0.36.
Take CAAGAGCAAUAUUACGAGGA: the “self-splicing fitness (ln)” value reads like this: (30 °C) -3.17 ± 0.33; (37 °C) -2.79 ± 0.44.
CGAAAGCAAUAUUACGUAUA: the “self-splicing fitness (ln)” value runs as follows: (30 °C) -3.52 ± 0.17; (37 °C) -2.99 ± 0.21.
Taken in the same sequence, the figures for UCGCAGCAAUAUUACGCUGG were -1.76 ± 0.16 and -2 ± 0.21.
Taken in the same sequence, the figures for GGGUAGCAAUAUUACGGAUA were -1.74 ± 0.25 and -1.08 ± 0.29.
Taken in the same sequence, the figures for CGACAGCAAUAUUACGUCCA were -0.437 ± 0.066 and -0.321 ± 0.081.
As for CCGGAGCAAUAUUACGUUCA, the “self-splicing fitness (ln)” value (30 °C) is -1.23 ± 0.17 and the “self-splicing fitness (ln)” value (37 °C) is -1.63 ± 0.29.
With AGCGAGCAAUAUUACGUGAC, the “self-splicing fitness (ln)” value (30 °C) is -3.4 ± 0.28.
For CGUGAGCAAUAUUACGAGCC, the “self-splicing fitness (ln)” value (37 °C) was -1.35 ± 0.41.
For CUUUAGCAAUAUUACGCGCU, the “self-splicing fitness (ln)” value by setting is: (30 °C) -3.14 ± 0.25; (37 °C) -0.469 ± 0.17.
Taken in the same sequence, the figures for ACAGAGCAAUAUUACGAGUC were -4.65 ± 0.38 and -1.82 ± 0.27.
Consider CCGGAGCAAUAUUACGGGGU, for which the “self-splicing fitness (ln)” value is, setting by setting: (30 °C) -3.59 ± 0.2; (37 °C) -2.93 ± 0.26.
On to UGUCAGCAAUAUUACGUUCU, for which the “self-splicing fitness (ln)” value runs as follows: (30 °C) -1.16 ± 0.071; (37 °C) -0.142 ± 0.073.
Taken in the same sequence, the figures for UAAUAGCAAUAUUACGACUG were -0.137 ± 0.062 and 0.0819 ± 0.078.
Taken in the same sequence, the figures for AGUAAGCAAUAUUACGUGCA were -1.36 ± 0.085 and -0.712 ± 0.092.
With CGGGAGCAAUAUUACGCUAG, the “self-splicing fitness (ln)” value by setting is: (30 °C) -2.57 ± 0.27; (37 °C) -1.27 ± 0.35.
Regarding GGGUAGCAAUAUUACGUGCC, the “self-splicing fitness (ln)” value (30 °C) was -0.954 ± 0.48.
Turning to CCUCAGCAAUAUUACGAUAA, the “self-splicing fitness (ln)” value runs as follows: (30 °C) -2.82 ± 0.16; (37 °C) -3.35 ± 0.32.
Taken in the same sequence, the figures for GGUGAGCAAUAUUACGCUGG were -2.87 ± 0.19 and -1.12 ± 0.16.
Taken in the same sequence, the figures for AGACAGCAAUAUUACGAGCA were -1.46 ± 0.12 and -0.648 ± 0.13.
Taken in the same sequence, the figures for ACUCAGCAAUAUUACGCGCG were -1.21 ± 0.12 and -0.47 ± 0.11.
For the sequence CUGGAGCAAUAUUACGCAGU, the “self-splicing fitness (ln)” value (37 °C) is -1.99 ± 0.43.
With ACAUAGCAAUAUUACGGUAC, the “self-splicing fitness (ln)” value runs as follows: (30 °C) -4.24 ± 0.33; (37 °C) -2.51 ± 0.27.
As to UCUUAGCAAUAUUACGUCAC, the “self-splicing fitness (ln)” value (37 °C) is -1.9 ± 0.33.
As for GUGCAGCAAUAUUACGUCUU, the “self-splicing fitness (ln)” value by setting is: (30 °C) -1.33 ± 0.083; (37 °C) -0.0365 ± 0.11.
With AAAAAGCAAUAUUACGGGAC, the “self-splicing fitness (ln)” value runs as follows: (30 °C) -1.94 ± 0.098; (37 °C) -0.477 ± 0.11.
Taken in the same sequence, the figures for GGAGAGCAAUAUUACGGGUU were -3.71 ± 0.24 and -2.46 ± 0.19.
Taken in the same sequence, the figures for CAACAGCAAUAUUACGUCGA were -1.37 ± 0.09 and -0.379 ± 0.077.
Taken in the same sequence, the figures for CGGCAGCAAUAUUACGGAAU were -5.35 ± 0.41 and -1.42 ± 0.13.
Regarding CUAAAGCAAUAUUACGAGGU, the “self-splicing fitness (ln)” value is, setting by setting: (30 °C) -4.41 ± 0.24; (37 °C) -2.81 ± 0.25.
Taken in the same sequence, the figures for UCCGAGCAAUAUUACGUUCC were -3.5 ± 0.25 and -3.16 ± 0.32.
AGAUAGCAAUAUUACGCCAC: the “self-splicing fitness (ln)” value (37 °C) is -2.5 ± 0.35.
Regarding GCAGAGCAAUAUUACGCUAA, where the note is “37 °C”, the “self-splicing fitness (ln)” value was -2.95 ± 0.43.
On to GAACAGCAAUAUUACGUGUG, for which the “self-splicing fitness (ln)” value (30 °C) is -1.35 ± 0.054 and the “self-splicing fitness (ln)” value (37 °C) is -0.967 ± 0.069.
Taken in the same sequence, the figures for GCAGAGCAAUAUUACGAAUC were -1.94 ± 0.33 and -1.15 ± 0.33.
Taken in the same sequence, the figures for CACAAGCAAUAUUACGCGCC were -3.41 ± 0.26 and -1.32 ± 0.16.
Taken in the same sequence, the figures for AAAGAGCAAUAUUACGAUCU were -1.42 ± 0.12 and -0.518 ± 0.12.
With GGAAAGCAAUAUUACGCGCU, the “self-splicing fitness (ln)” value runs as follows: (30 °C) -3.27 ± 0.38; (37 °C) -1.37 ± 0.26.
Taken in the same sequence, the figures for CAUUAGCAAUAUUACGAGAU were -4.04 ± 0.46 and -2.9 ± 0.24.
Taken in the same sequence, the figures for UUUCAGCAAUAUUACGGAGU were -2.8 ± 0.28 and -1.64 ± 0.38.
Taken in the same sequence, the figures for UUCAAGCAAUAUUACGGUUC were -4.02 ± 0.32 and -2.78 ± 0.48.
As to GAACAGCAAUAUUACGGCAC, the “self-splicing fitness (ln)” value (30 °C) was -0.296 ± 0.083 and the “self-splicing fitness (ln)” value (37 °C) is -0.0202 ± 0.1.
Take CAGCAGCAAUAUUACGUGGA: the “self-splicing fitness (ln)” value is, setting by setting: (30 °C) -3.09 ± 0.13; (37 °C) -1.84 ± 0.12.
Taken in the same sequence, the figures for AACCAGCAAUAUUACGCGGG were -4.5 ± 0.24 and -3.16 ± 0.24.
UUCGAGCAAUAUUACGUUUG: the “self-splicing fitness (ln)” value was -2.94 ± 0.14 (30 °C) and -2.99 ± 0.2 (37 °C).
Taken in the same sequence, the figures for GAUAAGCAAUAUUACGACCG were -1.01 ± 0.18 and -0.581 ± 0.36.
Taken in the same sequence, the figures for AAUAAGCAAUAUUACGUUUG were -3.16 ± 0.11 and -1.36 ± 0.1.
Taken in the same sequence, the figures for GGCAAGCAAUAUUACGCGUA were -0.585 ± 0.065 and -0.212 ± 0.076.
Take UAACAGCAAUAUUACGAUGA: the “self-splicing fitness (ln)” value was -1.01 ± 0.078 (30 °C) and -0.269 ± 0.088 (37 °C).
Taken in the same sequence, the figures for AGUGAGCAAUAUUACGUUGC were -3.28 ± 0.2 and -2.18 ± 0.24.
Taken in the same sequence, the figures for UCGUAGCAAUAUUACGUCAG were -3.66 ± 0.48 and -1.89 ± 0.29.
As for UGAGAGCAAUAUUACGUCUU, the “self-splicing fitness (ln)” value is, setting by setting: (30 °C) -3.18 ± 0.44; (37 °C) -1.9 ± 0.28.
Taken in the same sequence, the figures for GAUAAGCAAUAUUACGGUCA were -1.71 ± 0.12 and -0.711 ± 0.11.
Taken in the same sequence, the figures for UCGCAGCAAUAUUACGGUUU were -3.17 ± 0.12 and -1.72 ± 0.12.
Taken in the same sequence, the figures for CUAGAGCAAUAUUACGCUUG were -3.03 ± 0.21 and -1.83 ± 0.23.
Take GCCUAGCAAUAUUACGUCAG: the “self-splicing fitness (ln)” value was -2.36 ± 0.26 (30 °C) and -0.81 ± 0.34 (37 °C).
Taken in the same sequence, the figures for GCAUAGCAAUAUUACGCAAA were -1.88 ± 0.39 and -0.928 ± 0.24.
Taken in the same sequence, the figures for CAGGAGCAAUAUUACGUCAG were -3.88 ± 0.4 and -1.17 ± 0.28.
Taken in the same sequence, the figures for AGACAGCAAUAUUACGAUUG were -2.94 ± 0.16 and -3.15 ± 0.28.
For GGUAAGCAAUAUUACGCGAA, the “self-splicing fitness (ln)” value (30 °C) is -1.27 ± 0.15 and the “self-splicing fitness (ln)” value (37 °C) was -1.15 ± 0.16.
Taken in the same sequence, the figures for UACCAGCAAUAUUACGGUGC were -3.21 ± 0.12 and -2.64 ± 0.2.
